Consider 6 molecules from PMC5681435, “Differential Regulation of G1 CDK Complexes by the Hsp90-Cdc37 Chaperone System” (Cell Reports, 2017).

For data set [1], the target named is T1, CDK6-Cdc37 and CDK6-Cdc37-SfHsp90 complexes (Homo sapiens, UniProt Q00534).
T1 construct: Full length human CDK4 and CDK6 with an N-terminal; made in house; host or cells: Sf9 insect cells (co-expression, baculovirus)
The experiment in a line: Pull-down with Avi-tagged bait from CDK6-Cdc37 and CDK6-Cdc37-SfHsp90 complexes assembled in insect cells. It is filed as binding. Conditions: 3-fold molar excess of complex, 4 °C. As to the method:
exchange chromatography (HiTrap Q, GE Healthcare). Protein concentrations were determined by NanoDrop2000 UV-Vis Spectrophotometer (Thermo Scientific) or using a Shimadzu UV1800 spectrophotometer. A representative SDS-polyacrylamide gel stained with silver is shown in Figure S4 to illustrate the purity of the GSTCDK4 and GSTCDK6 […]
Avi-tagged proteins (Cdc37, p16INK4a, p16INK4a mutants, Kcyclin and Vcyclin) were biotinylated to provide an affinity tag for the streptavidin-tagged XL665 dye. A substantial amount of biotinylated protein was purified from the recombinant E. coli cells as a result of endogenous BirA activity. Proteins were further modified by incubating 40 µM of the Avi-tagged protein with 10 µg BirA in biotinylation buffer (50 mM Bicine pH 8.3, 10 mM ATP, 10 mM MgOAc, 50 µM d-biotin) at 30°C for 60 minutes. […] The extent of protein biotinylation was monitored by pull downs using High Capacity NeutrAvidin® Agarose Resin (Thermo […]
To assemble the various complexes, 15 µg of Cdc37 was mixed with a molar equivalent of CDK6, and incubated for 1hour at 4 °C. […] The reactions were stopped by addition of 2 x LDS buffer and analysed by SDS-PAGE and subsequent western blotting using an anti-phosphorylated S780 antibody […]
Homogenous time-resolved fluorescence (HTRF) […]

The subject of data set [2] is G1 progression. Details: method as in Koh et al., 1995. Conditions: ref Koh et al., 1995; cited from earlier work.
Data set [3] is described as follows: Differential scanning fluorimetry (DSF) melting temperature. Format: physicochemical. Conditions: for Tm: 5 µM protein. In general terms: DSF heats the sample and reads unfolding from a dye or from intrinsic fluorescence.
Data set [4] addresses T2, CDK4-Cdc37 complex (Homo sapiens, UniProt P11802).
T2 construct: Full length human CDK4 and CDK6 with an N-terminal; made in house; host or cells: GSTCDK4: Sf9 insect cells; Cdc37: E. coli
It is filed as binding. Conditions: HTRF competition, 8 nM GSTCDK4, 150 nM C-Avi Cdc37. In general terms: In TR-FRET formats the signal depends on donor and acceptor labels being close together.

Data set [5] concerns the target T3, CDK4 (Homo sapiens, UniProt P11802).
T3 construct: Full length human CDK4 and CDK6 with an N-terminal; made in house; host or cells: Sf9 insect cells (baculovirus, MultiBac)
Description: SPR binding to immobilized GSTCDK4. Conditions: for Binding to CDK4 by SPR (in words): GSTCDK4 captured on chip.

The target of data set [6] is T4, CDK6 (Homo sapiens, UniProt Q00534).
T4 construct: Full length human CDK4 and CDK6 with an N-terminal; made in house; host or cells: Sf9 insect cells (baculovirus, MultiBac)
The experiment in a line: SPR binding to immobilized GSTCDK6. Conditions: for Kd: GSTCDK6 captured on chip, 4 °C. For orientation: Surface plasmon resonance follows binding to a sensor surface in real time, without labels.

In data set [7] the test system is CDK4-cyclin D1. Details: method as in Koh et al., 1995. Conditions: ref Koh et al., 1995; cited from earlier work.

Several values for one entry are separate records, joined by “and”; a condition that tells them apart may be missing. Identical values can stand only once. Entries after “also recorded” stand apart in the source; their conditions may differ. Some results are limits rather than exact numbers.

T2 sequence (P11802 whole entry, one chain of several): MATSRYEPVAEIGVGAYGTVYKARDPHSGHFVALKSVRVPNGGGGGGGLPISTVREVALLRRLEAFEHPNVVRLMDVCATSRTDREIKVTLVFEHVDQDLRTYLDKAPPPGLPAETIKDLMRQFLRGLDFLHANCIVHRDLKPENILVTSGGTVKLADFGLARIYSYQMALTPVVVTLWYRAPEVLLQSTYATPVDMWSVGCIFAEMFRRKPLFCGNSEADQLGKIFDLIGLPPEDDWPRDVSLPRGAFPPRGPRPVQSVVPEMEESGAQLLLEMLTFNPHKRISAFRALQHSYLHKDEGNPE
T3 sequence (P11802 whole entry): as the sequence (P11802 whole entry, one chain of several) above
T4 sequence (Q00534 whole entry): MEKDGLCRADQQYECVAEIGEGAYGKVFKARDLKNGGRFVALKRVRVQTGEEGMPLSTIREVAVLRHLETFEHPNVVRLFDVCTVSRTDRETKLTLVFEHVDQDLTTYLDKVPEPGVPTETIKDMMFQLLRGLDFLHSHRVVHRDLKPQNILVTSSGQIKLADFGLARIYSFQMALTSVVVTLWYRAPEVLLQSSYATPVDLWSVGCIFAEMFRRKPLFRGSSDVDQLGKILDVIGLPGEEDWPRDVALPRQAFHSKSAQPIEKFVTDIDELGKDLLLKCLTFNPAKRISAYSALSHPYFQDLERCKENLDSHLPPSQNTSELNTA
T1 sequence (Q00534 whole entry, one chain of several): as the sequence (Q00534 whole entry) above

B1: Kcyclin: viral D-type cyclin from Kaposi’s sarcoma-associated herpesvirus (protein)
chain: MATANNPPSGLLDPTLCEDRIFYNILEIEPRFLTSDSVFGTFQQSLTSHMRKLLGTWMFSVCQEYNLEPNVVALALNLLDRLLLIKQVSKEHFQKTGSACLLVASKLRSLTPISTSSLCYAAADSFSRQELIDQEKELLEKLAWRTEAVLATDVTSFLLLKLLGGSQHLDFWHHEVNTLITKALVDPKTGSLPASIISAAGCALLVPANVIPQDTHSGGVVPQLASILGCDVSVLQAAVEQILTSVSDFDLRILDSY
modifications: biotin (on the Avi tag); left off: Avi tag, end not stated, kept
notes: viral D-type cyclin from Kaposi’s sarcoma-associated herpesvirus
As for B1, the “Displacement of CDK6 from CDK6-Cdc37 and CDK6-Cdc37-SfHsp90 (pull-down)” value in data set [1] was “able to displace CDK6; also recorded: could extract CDK6”.

B2: p16D84N: p16INK4a mutant in which D84 is mutated to an asparagine (protein)
chain: MEPAAGSSMEPSADWLATAAARGRVEEVRALLEAGALPNAPNSYGRRPIQVMMMGSARVAELLLLHGAEPNCADPATLTRPVHNAAREGFLDTLVVLHRAGARLDVRDAWGRLPVDLAEELGHRDVARYLRAAAGGTRGSNHARIDAAEGPSDIPD
In the case of B2, in data set [2], the “Inhibition of G1 progression” value is reported as “modestly less effective”. Besides, the Tm in data set [3] is 45.1 (±1.9) °C; in data set [3] (listed as D84N), 45.1 °C. The “Displacement of Cdc37 from CDK4-Cdc37 complex (in words)” value (“Displacement of Cdc37” below) in data set [4] is “unable to displace CDK4 or CDK6 from Cdc37”. Moreover, the “Binding to CDK4 by SPR (in words)” value in data set [5] is “binding could be detected but not quantified”. This molecule also gave a Kd in data set [6] of 60 nM. In data set [7], the “Inhibition of CDK4-cyclin D1 kinase activity” value is recorded as “as effectively as wild-type p16INK4a”.

B3: p16D108N: p16INK4a mutant, D108 mutated to an asparagine (protein)
chain: MEPAAGSSMEPSADWLATAAARGRVEEVRALLEAGALPNAPNSYGRRPIQVMMMGSARVAELLLLHGAEPNCADPATLTRPVHDAAREGFLDTLVVLHRAGARLDVRNAWGRLPVDLAEELGHRDVARYLRAAAGGTRGSNHARIDAAEGPSDIPD
As to B3, in data set [3], the “ΔTm (versus p16INK4a)” value was −10.5 (±1.29) °C; the Tm was 36.4 °C and 36.4 (±3.1) °C. Also, the “Displacement of Cdc37” value in data set [4] was “only a modest reduction in activity”.

B4: p16M53E: p16INK4a M53E mutant (protein)
chain: MEPAAGSSMEPSADWLATAAARGRVEEVRALLEAGALPNAPNSYGRRPIQVMEMGSARVAELLLLHGAEPNCADPATLTRPVHDAAREGFLDTLVVLHRAGARLDVRDAWGRLPVDLAEELGHRDVARYLRAAAGGTRGSNHARIDAAEGPSDIPD
Take B4: in data set [3], the “ΔTm (versus p16INK4a)” value is −4.6 (±1.66) °C and the Tm was 43.2 (±0.38) °C.

B5: p16M53I: p16INK4a mutant in which M53 is mutated to an isoleucine (protein)
chain: MEPAAGSSMEPSADWLATAAARGRVEEVRALLEAGALPNAPNSYGRRPIQVMIMGSARVAELLLLHGAEPNCADPATLTRPVHDAAREGFLDTLVVLHRAGARLDVRDAWGRLPVDLAEELGHRDVARYLRAAAGGTRGSNHARIDAAEGPSDIPD
As to B5, the “ΔTm (versus p16INK4a)” value in data set [3] is −4.9 (±2.33) °C. For the same molecule, the Tm in data set [3] is 42.7 (±0.47) °C; in data set [3] (listed as M53I), 42.7 °C. In data set [4], the “Displacement of Cdc37” value is “ineffective”. Further, the “Binding to CDK4 by SPR (in words)” value in data set [5] is on record as “binding could be detected but not quantified”. Further, the “Reduction in the strength of the interaction with CDK4 versus wild-type p16INK4a” value in data set [5] (enhanced koff rate toward CDK4) is recorded as > 10^6 fold. Further, the “Higher rate of dissociation from CDK6 compared with wild-type p16INK4a” value in data set [6] was “approximately 10 fold”.

B6: Vcyclin: viral D-type cyclin from Herpesvirus saimiri (protein)
chain: MADSPNRLNRAKIDSTTMKDPRVLNNLKLRELLLPKFTSLWEIQTEVTVDNRTILLTWMHLLCESFELDKSVFPLSVSILDRYLCKKQGTKKTLQKIGAACVLIGSKIRTVKPMTVSKLTYLSCDCFTNLELINQEKDILEALKWDTEAVLATDFLIPLCNALKIPEDLWPQLYEAASTTICKALIQPNIALLSPGLICAGGLLTTIETDNTNCRPWTCYLEDLSSILNFSTNTVRTVKDQVSEAFSLYDLEIL
Consider B6, for which the “Binding to CDK4 by SPR (in words)” value in data set [5] is on record as “the data quality precluded calculation of a Kd”. Also, binding in data set [6] was put at a Kd of 0.016 ± 0.013 nM.

One may read the Kd as the constant that tells how readily two partners part at equilibrium.
